Experimental data: article PMC3376730, “Crystal structure of Caulobacter crescentus polynucleotide phosphorylase reveals a mechanism of RNA substrate channelling and RNA degradosome assembly” (Open Biology, 2012)
Blank lines part the entries; values can stand above or below the binder they belong to.

B1: Caulobacter crescentus polynucleotide phosphorylase (enzyme, UniProt B8GWZ0 1-712, looked up)
chain: MFDIKRKTIEWGGKTLVLETGRIARQADGAVLATMGETVVLATAVFAKSQKPGQDFFPLTVNYQEKTFAAGKIPGGFFKREGRPSEKETLVSRLIDRPIRPLFVKGFKNEVQVVVTVLQHDLENDPDILGMVAASAALCLSGAPFMGPIGAARVGWVDGAYVLNPTLDEMKESKMDLVVAGTADAVMMVESEIQELSEEIVLGGVNFAHQQMQAVIDAIIDLAEHAAKEPFAFEPEDTDAIKAKMKDLVGADIAAAYKIQKKQDRYEAVGAAKKKAIAALGLSDENPTGYDPLKLGAIFKELEADVVRRGILDTGLRIDGRDVKTVRPILGEVGILPRTHGSALFTRGETQAIVVATLGTGDDEQFIDALEGTYKESFLLHYNFPPYSVGETGRMGSPGRREIGHGKLAWRALRPMLPTKEDFPYTIRLVSEITESNGSSSMATVCGSSLAMMDAGVPLVRPVSGIAMGLILEQDGFAVLSDILGDEDHLGDMDFKVAGTSEGLTSLQMDIKIAGITPAIMEQALAQAKEGRAHILGEMNKAMDAPRADVGDFAPKIETINIPTDKIREVIGSGGKVIREIVATTGAKVDINDDGVVKVSASDGAKIKAAIDWIKSITDEAEVGKIYDGKVVKVVDFGAFVNFFGAKDGLVHVSQISNERVAKPSDVLKEGQMVKVKLLGFDDRGKTKLSMKVVDQETGEDLSKKEAAAEEA
notes: polynucleotide phosphorylase, pnp gene (CC0034), amplified from genomic DNA of C. crescentus strain NA1000 with primers from the start codon to the stop codon; Two alternative constructs were made (GST-PNPase from pGEX-6p-1, GST cut off with PreScission protease; 6xHis-PNPase from pET-DUET); the two tags are not on one chain; also called PNPase; C. crescentus PNPase; source: E. coli, purified …

Legend:
[1] = molecular target: T1, PNPase (polynucleotide phosphorylase) (Caulobacter crescentus, UniProt Q9AC32 1-712); assay: X-ray crystallography; co-crystallized with apo-PNPase; same cell and space group (P22121) as endogenous RNA complex; Crystals of RNA-bound PNPase: 24% w/v PEG 3350, 0.1 M bis-Tris pH 5.5, 0.1 M ammonium acetate, 18 C; conditions: protein: recombinant; tags: 6xHis N-terminal (pET-DUET) or N-terminal GST (pGEX-6p-1) removed with PreScission; chain copies: 3
T1 sequence: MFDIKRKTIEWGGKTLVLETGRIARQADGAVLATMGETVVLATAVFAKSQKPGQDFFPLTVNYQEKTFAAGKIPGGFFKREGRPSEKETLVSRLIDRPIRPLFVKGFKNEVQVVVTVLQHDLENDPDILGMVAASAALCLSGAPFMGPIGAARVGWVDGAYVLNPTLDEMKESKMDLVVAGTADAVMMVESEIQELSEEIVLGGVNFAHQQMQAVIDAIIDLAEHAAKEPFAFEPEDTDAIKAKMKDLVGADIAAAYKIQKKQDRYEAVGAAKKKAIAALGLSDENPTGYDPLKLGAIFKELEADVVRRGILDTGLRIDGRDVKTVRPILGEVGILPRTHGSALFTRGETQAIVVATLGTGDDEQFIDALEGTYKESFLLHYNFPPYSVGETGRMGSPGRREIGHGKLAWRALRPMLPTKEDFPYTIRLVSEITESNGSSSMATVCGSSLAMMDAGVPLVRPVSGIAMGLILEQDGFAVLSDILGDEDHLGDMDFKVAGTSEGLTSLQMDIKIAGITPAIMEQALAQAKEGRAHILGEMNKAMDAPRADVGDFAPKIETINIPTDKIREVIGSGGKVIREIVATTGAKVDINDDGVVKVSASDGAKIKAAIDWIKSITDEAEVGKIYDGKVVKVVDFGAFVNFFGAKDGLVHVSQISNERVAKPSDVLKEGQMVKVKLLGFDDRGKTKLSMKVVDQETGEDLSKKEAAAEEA

[2] = molecular target: the molecule itself; assay: crystal structure; apo-PNPase co-crystallised with the peptide at 2 : 1 molar excess; rhombohedral (R3) and hexagonal (P6_(3)) forms, sitting drop, 18°C
[3] = molecular target: B1; assay: as above; conditions: both partners purified
[4] = molecular target: B1; assay: native gel or EMSA; approximate fourfold molar excess of GST-peptide mixed with PNPase, 20 mM Tris–HCl pH 7.5, 200 mM NaCl, room temperature 10 min, 8 per cent non-denaturing PAGE; conditions: both partners purified

Binder: GUUUAUUGCCGUUCUUGUUAUAUGCCUU (ssRNA) [27mer MicC portion RNA]
binding result [1]: binds

Binder: B1
stoichiometry N [2]: 3

binding result [3]: binds
B2: C. crescentus PNPase recognition peptide from RNase E (EKPRRGWWRR) (peptide)
peptide: EKPRRGWWRR
notes: last 10 amino acids of C. crescentus RNase E; also called GWW peptide; RNase E recognition peptide; source: synthetic peptide (Cambridge Research Biochemicals)

binding result [4]: binds
B3: GST fused to the PNPase recognition peptide of RNase E (TAPPEKPRRGWWRR) (peptide)
chain: TAPPEKPRRGWWRR
notes: C-terminal PNPase recognition peptide of C. crescentus RNase E, encoded by the 3' end of the rne gene (cc1877); Cloned in pGEX-6p-1 through BamHI and XhoI; also called GST–GWW; GST–GWW peptide; source: E. coli, purified (glutathione sepharose); not shown: GST, N-terminal, kept
